T1: NFATc expressed from an expression construct
T1 sequence (O95644 1-943, species assumed, looked up): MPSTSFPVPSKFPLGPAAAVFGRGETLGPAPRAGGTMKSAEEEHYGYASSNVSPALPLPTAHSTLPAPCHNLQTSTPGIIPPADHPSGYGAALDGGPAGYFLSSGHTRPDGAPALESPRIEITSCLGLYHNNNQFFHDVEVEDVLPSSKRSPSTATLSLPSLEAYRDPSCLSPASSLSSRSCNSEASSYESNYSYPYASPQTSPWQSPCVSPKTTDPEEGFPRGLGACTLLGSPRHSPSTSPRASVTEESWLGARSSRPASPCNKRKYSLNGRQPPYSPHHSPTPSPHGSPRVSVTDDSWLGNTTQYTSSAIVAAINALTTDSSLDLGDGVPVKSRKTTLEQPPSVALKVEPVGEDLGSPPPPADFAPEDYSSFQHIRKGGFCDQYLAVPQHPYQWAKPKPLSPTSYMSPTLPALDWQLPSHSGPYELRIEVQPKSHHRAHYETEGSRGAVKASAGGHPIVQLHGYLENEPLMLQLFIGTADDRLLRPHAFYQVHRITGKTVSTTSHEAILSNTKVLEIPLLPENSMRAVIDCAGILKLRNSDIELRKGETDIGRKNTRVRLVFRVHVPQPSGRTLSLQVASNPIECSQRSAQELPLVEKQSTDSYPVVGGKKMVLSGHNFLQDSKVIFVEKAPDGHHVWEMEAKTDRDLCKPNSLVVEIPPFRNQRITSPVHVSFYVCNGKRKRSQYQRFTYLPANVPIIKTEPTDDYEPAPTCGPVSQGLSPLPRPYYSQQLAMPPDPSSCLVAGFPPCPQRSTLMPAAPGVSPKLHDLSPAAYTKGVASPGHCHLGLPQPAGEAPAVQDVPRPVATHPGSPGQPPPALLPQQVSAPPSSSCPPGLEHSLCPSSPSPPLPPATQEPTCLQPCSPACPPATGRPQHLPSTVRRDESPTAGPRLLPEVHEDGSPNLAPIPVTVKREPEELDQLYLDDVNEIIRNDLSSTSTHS

T2: NFAT3 expressed from an expression construct
T2 sequence (Q14934 1-902, species assumed, looked up): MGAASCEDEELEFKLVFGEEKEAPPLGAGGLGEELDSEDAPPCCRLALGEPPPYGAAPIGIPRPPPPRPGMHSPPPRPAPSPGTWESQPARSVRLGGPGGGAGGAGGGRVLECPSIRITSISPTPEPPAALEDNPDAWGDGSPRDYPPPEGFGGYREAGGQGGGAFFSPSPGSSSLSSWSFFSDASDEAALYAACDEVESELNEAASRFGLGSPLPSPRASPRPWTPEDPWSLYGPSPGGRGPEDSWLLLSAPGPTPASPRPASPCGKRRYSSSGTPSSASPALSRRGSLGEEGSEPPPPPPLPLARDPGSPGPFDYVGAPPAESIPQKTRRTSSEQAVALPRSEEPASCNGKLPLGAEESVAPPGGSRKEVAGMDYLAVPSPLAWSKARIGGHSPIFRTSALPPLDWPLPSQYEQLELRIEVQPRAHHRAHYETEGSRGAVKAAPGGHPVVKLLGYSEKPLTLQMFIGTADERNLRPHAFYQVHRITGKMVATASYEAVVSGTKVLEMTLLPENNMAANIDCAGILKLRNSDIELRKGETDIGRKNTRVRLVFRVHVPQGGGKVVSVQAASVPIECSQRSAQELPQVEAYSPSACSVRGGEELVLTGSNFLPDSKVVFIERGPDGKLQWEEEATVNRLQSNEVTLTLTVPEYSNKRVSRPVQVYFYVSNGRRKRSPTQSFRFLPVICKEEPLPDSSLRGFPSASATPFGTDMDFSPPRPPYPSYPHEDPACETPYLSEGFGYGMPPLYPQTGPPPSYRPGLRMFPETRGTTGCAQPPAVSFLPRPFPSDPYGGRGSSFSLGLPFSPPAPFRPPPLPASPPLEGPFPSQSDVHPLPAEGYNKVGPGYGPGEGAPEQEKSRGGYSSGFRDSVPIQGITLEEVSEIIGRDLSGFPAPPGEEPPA

T3: NFAT4 expressed from an expression construct
T3 sequence (Q12968 2-1075, species assumed, looked up): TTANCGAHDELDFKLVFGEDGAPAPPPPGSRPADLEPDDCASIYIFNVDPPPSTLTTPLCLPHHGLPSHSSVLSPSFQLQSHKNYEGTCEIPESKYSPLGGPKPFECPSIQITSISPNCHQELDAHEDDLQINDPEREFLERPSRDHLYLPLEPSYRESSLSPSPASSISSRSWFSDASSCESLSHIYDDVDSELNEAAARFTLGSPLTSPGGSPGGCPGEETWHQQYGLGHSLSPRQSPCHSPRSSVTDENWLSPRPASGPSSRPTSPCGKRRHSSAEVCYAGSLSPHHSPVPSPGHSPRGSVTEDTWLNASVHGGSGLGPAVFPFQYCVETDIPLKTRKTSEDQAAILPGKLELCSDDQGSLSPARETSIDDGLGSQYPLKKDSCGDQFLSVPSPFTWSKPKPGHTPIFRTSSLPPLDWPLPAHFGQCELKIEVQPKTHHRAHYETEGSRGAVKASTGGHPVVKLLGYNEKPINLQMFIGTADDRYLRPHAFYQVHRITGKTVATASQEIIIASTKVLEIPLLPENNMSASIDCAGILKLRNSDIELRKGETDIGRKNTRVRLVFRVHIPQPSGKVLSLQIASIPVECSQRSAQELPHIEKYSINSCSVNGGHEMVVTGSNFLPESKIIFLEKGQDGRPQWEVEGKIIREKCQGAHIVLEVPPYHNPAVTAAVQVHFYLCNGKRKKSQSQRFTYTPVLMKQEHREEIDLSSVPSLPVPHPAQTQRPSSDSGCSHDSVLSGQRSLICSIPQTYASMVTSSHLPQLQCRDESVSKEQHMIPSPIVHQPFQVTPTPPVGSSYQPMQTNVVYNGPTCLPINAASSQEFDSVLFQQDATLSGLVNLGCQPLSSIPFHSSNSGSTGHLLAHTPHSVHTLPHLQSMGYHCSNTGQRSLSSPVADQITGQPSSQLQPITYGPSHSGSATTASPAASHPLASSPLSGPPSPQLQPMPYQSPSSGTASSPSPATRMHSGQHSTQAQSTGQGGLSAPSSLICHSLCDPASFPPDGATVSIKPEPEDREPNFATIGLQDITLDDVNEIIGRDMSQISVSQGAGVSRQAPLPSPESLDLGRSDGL

T4: CARM1 of Jurkat cell lysates (human, UniProt Q86X55 2-608, limits assumed)
T4 sequence (looked up): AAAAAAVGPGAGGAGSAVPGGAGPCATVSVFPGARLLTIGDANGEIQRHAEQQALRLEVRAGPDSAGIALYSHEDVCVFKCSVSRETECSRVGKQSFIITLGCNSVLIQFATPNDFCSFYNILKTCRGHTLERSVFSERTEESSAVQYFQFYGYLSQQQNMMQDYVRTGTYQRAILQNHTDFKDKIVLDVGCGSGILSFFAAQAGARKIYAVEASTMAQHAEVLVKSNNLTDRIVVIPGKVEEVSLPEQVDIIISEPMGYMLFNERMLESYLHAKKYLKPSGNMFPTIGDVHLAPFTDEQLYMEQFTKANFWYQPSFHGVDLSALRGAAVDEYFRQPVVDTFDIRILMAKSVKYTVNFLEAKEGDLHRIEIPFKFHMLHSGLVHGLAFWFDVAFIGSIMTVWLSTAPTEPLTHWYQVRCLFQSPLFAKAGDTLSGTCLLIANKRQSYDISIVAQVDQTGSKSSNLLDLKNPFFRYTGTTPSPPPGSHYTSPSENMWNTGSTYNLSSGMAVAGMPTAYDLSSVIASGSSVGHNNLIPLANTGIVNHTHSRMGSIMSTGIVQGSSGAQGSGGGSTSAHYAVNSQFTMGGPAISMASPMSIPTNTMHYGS


Assays:
[1] = biological target: T1, NFATc expressed from an expression …; test: cell-based or functional assay
[2] = biological target: T2, NFAT3 expressed from an expression …; test: cell-based or functional assay
[3] = biological target: T3, NFAT4 expressed from an expression …; test: cell-based or functional assay
[4] = biological target: T4, CARM1 of Jurkat cell lysates; test: GST pull-down of Jurkat cell lysates, immunoblot with a polyclonal CARM1 antibody
Experimental: FIGS. 16A-16C depict the interaction of NIP45 and PRMT. (A) Jurkat cell lysates were used in pulldown assays with 25 μg of recombinant GST, GST-NIP45, and GST-ΔN-NIP45. The presence of PRMT1 or CARM1 in pulldown samples was determined by immunoblotting with a monoclonal PRMT1 antibody and a polyclonal CARM1 antibody. PVDF membranes were reprobed with anti-GST antibodies to determine equal amount of recombinant proteins in pulldown samples. (B) Flag-NIP45or Flag-ΔN-NIP45 or vector control and HA-PRMT1 expression constructs were transfected in 293 cells. Lysates were immunoprecipitated with anti-Flag agarose and interaction with PRMT1 was determined by probing immunoblots with a monoclonal anti-HA antibody. Equal loading was assessed by probing with an anti-Flag antibody. (C) Lysates from unstimulated or 60 min PMA/ionomycin stimulated day 7 Th1 or Th2 differentiation cultures were immunoprecipitated with a monoclonal PRMT1 antibody or appropriate isotype control. Interaction with endogenous NIP45 was determined by immunoblotting PRMT1 antibody to determine equal loading.
Because PRMT1 methylates NIP45, their interaction was examined more closely. To determine specificity of interaction GST-NIP45 and GST-ΔN-NIP45 fusion proteins were used in pulldown assays of Jurkat cell lysates. […]

| Binder | transactivation of a 3X NFAT-CAT reporter in HepG2 cells [1] [fold] | transactivation of a 3X NFAT-CAT reporter in HepG2 cells [2] [fold] | transactivation of a 3X NFAT-CAT reporter in HepG2 cells [3] [fold] | binding result [4] |
| --- | --- | --- | --- | --- |
| NIP45 expressed from a NIP45 expression plasmid (other) MAEPLRGRGPRSRGGRGARRARGARGRCPRARQSPARLIPDTVLVDLVSDSDEEVLEVADPVEVPVARLPAPAKPEQDSDSDSEGAAEGPAGAPRTLVRRRRRRLLDPGEAPVVPVYSGKVQSSLNLIPDNSSLLKLCPSEPEDEADLTNSGSSPSEDDALPSGSPWRKKLRKKCEKEEKKMEEFPDQDISPLPQPSSRNKSRKHTEALQKLREVNKRLQDLRSCLSPKQHQSPALQSTDDEVVLVEGPVLPQSSRLFTLKIRCRADLVRLPVRMSEPLQNVVDHMANHLGVSPNRILLLFGESELSPTATPSTLKLGVADIIDCVVLASSSEATETSQELRLRVQGKEKHQMLEISLSPDSPLKVLMSHYEEAMGLSGHKLSFFFDGTKLSGKELPADLGLESGDLIEVWG | 4 | 3 | 2 | – |
| GST-NIP45 fusion protein (bacterially expressed, full length NIP45) (other, also called recombinant GST-NIP45; recombinant full-length NIP45; not shown: glutathione-S-transferase (GST) fusion partner) MAEPLRGRGPRSRGGRGARRARGARGRCPRARQSPARLIPDTVLVDLVSDSDEEVLEVADPVEVPVARLPAPAKPEQDSDSDSEGAAEGPAGAPRTLVRRRRRRLLDPGEAPVVPVYSGKVQSSLNLIPDNSSLLKLCPSEPEDEADLTNSGSSPSEDDALPSGSPWRKKLRKKCEKEEKKMEEFPDQDISPLPQPSSRNKSRKHTEALQKLREVNKRLQDLRSCLSPKQHQSPALQSTDDEVVLVEGPVLPQSSRLFTLKIRCRADLVRLPVRMSEPLQNVVDHMANHLGVSPNRILLLFGESELSPTATPSTLKLGVADIIDCVVLASSSEATETSQELRLRVQGKEKHQMLEISLSPDSPLKVLMSHYEEAMGLSGHKLSFFFDGTKLSGKELPADLGLESGDLIEVWG | – | – | – | no binding (tested: 25 µg of recombinant protein) |

Source: patent publication US20090048117A1 (Harvard, published 2009)
